In patent US20150064134A1:

Columns and labels:
Test in all cases: cell-based or functional assay
[1] = biological target: Abl(Y253F)(h) (human) (UniProt P00519)
[2] = biological target: CDK3/cyclinE(h) (human) (UniProt Q00526)
[3] = biological target: T1, eEF-2K(h) (human) (UniProt O00418)
T1 sequence (looked up): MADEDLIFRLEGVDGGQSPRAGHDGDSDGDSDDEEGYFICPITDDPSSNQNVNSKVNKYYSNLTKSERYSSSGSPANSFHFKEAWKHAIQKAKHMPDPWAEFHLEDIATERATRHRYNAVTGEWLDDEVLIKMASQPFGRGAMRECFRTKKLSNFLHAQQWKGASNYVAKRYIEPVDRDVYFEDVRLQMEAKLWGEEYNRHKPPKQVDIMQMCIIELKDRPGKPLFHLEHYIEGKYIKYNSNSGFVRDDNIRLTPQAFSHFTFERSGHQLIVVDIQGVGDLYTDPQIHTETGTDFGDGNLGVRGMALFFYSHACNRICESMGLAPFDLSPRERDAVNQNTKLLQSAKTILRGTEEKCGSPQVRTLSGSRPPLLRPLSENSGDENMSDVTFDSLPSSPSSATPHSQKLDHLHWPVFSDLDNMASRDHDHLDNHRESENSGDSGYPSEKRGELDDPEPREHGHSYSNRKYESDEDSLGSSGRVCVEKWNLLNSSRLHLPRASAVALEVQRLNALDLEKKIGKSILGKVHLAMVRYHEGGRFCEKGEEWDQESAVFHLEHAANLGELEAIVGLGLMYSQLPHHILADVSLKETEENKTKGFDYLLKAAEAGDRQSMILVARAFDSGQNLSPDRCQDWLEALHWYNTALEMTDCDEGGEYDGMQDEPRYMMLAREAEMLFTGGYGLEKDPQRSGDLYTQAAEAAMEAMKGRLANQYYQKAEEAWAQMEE

[4] = biological target: T2, Txk(h) (human) (UniProt P42681)
T2 sequence (looked up): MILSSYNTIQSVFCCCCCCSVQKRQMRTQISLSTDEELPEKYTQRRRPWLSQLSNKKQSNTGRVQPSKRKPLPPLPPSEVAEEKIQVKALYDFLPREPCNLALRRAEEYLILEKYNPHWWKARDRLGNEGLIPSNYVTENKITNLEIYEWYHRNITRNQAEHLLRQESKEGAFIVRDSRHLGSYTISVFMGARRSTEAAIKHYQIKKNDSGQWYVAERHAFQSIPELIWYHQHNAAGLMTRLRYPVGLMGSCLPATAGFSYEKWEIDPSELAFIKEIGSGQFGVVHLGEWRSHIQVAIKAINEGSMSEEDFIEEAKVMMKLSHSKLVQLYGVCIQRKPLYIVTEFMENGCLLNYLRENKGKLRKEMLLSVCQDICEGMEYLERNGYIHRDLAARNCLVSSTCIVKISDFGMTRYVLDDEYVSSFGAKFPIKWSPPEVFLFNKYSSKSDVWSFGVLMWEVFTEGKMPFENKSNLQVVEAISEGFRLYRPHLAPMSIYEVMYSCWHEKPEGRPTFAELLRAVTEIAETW

[5] = biological target: Rsk2(h) (human) (UniProt P51812)
Sequence of Rsk2(h) (human) (P51812 whole entry): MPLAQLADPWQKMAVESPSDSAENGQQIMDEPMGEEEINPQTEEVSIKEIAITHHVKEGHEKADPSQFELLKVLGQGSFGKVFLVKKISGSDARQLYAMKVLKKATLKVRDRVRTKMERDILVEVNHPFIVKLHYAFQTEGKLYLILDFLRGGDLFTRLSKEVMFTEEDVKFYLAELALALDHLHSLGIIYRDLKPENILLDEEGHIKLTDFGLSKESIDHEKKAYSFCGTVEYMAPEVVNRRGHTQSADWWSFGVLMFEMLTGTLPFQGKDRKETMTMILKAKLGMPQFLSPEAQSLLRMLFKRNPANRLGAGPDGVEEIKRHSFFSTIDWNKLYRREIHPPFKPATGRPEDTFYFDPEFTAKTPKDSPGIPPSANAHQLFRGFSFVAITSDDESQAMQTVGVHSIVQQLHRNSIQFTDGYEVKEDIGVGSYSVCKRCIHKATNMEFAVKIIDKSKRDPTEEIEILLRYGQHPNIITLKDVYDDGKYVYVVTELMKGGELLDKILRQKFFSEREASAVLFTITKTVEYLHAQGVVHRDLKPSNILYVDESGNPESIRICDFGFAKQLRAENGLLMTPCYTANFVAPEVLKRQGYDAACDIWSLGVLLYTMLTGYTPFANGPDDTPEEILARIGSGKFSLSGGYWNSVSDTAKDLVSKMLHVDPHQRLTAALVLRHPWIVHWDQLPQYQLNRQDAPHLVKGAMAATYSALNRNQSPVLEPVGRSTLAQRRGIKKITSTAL

[6] = biological target: T3, DRAK1(h) (human) (UniProt Q9UEE5)
T3 sequence (looked up): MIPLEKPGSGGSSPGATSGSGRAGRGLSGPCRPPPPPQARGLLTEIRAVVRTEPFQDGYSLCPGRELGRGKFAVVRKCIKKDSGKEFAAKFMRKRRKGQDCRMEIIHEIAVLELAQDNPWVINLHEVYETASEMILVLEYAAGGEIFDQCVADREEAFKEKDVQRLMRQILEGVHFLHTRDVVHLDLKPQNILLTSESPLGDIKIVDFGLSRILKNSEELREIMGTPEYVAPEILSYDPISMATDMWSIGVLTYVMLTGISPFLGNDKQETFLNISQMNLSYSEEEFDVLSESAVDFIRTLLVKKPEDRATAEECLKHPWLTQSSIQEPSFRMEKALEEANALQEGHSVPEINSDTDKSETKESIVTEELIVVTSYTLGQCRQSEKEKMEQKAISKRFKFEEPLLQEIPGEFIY

[7] = biological target: cSRC(h) (human) (UniProt P12931)
[8] = biological target: T4, Ret(V804L)(h) (human) (UniProt P07949)
T4 sequence (looked up): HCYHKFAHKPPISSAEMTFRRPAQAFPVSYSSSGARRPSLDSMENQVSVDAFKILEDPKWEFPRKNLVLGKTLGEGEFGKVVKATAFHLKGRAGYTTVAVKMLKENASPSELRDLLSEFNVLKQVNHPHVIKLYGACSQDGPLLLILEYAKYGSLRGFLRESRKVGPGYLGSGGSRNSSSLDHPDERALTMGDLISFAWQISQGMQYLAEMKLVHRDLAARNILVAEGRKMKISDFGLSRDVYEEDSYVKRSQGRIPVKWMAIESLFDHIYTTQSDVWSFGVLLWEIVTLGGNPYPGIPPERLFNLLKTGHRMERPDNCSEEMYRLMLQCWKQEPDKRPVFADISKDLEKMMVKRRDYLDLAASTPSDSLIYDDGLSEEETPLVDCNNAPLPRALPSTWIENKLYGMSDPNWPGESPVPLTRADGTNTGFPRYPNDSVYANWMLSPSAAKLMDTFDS

[9] = biological target: NEK7(h) (human) (UniProt Q8TDX7)
[10] = biological target: T5, PhKγ2(h) (human) (UniProt P15735)
T5 sequence (looked up): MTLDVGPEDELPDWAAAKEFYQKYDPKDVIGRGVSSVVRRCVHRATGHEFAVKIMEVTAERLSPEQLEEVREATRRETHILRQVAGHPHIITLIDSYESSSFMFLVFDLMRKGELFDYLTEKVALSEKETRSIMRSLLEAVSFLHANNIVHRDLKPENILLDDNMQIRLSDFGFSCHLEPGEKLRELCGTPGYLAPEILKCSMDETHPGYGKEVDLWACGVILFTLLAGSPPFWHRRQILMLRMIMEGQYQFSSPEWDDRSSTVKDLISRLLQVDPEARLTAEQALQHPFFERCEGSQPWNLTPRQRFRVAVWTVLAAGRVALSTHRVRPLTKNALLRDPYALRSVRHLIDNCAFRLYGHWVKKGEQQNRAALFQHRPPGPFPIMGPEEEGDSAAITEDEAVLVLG

[11] = biological target: Src(1-530)(h) (human) (UniProt P12931)
[12] = biological target: MKK6(h) (human) (UniProt P52564)
[13] = biological target: PKCδ(h) (human) (UniProt Q05655)

Sequence of Abl(Y253F)(h) (human) (P00519 27-1130 Y253F limits assumed): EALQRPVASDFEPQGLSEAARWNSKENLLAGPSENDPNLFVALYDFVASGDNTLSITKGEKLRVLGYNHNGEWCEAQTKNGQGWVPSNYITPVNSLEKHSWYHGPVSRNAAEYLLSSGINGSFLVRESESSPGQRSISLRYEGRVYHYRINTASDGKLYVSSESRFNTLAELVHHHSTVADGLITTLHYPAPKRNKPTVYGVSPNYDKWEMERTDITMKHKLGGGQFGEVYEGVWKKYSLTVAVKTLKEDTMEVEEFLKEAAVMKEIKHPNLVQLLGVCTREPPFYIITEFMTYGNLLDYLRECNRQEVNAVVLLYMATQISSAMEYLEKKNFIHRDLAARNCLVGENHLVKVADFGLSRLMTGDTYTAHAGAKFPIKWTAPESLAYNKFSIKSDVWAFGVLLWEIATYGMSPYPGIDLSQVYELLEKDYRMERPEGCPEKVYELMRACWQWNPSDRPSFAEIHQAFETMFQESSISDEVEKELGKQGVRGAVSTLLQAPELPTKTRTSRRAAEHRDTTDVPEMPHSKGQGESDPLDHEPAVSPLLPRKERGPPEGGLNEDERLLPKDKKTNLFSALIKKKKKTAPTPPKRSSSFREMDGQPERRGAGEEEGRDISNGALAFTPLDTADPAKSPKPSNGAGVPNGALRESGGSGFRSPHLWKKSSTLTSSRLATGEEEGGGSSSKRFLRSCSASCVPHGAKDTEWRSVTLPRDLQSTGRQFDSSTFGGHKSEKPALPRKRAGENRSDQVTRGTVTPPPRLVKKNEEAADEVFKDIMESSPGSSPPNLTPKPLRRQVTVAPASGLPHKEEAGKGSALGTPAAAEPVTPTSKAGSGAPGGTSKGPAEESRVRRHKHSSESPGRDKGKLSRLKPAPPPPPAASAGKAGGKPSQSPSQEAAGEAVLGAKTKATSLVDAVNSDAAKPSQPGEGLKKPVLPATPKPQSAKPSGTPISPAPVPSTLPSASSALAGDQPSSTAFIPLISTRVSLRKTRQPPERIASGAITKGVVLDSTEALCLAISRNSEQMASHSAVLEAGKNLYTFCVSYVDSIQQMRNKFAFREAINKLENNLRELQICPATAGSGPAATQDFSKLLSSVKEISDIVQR

Substance	% activity at 100 µM [1] [%]	% activity at 100 µM [2] [%]	% activity at 100 µM [3] [%]	% activity at 100 µM [4] [%]	% activity at 100 µM [5] [%]	% activity at 100 µM [6] [%]	% activity at 100 µM [7] [%]	% activity at 100 µM [8] [%]	% activity at 100 µM [9] [%]	% activity at 100 µM [10] [%]	% activity at 100 µM [11] [%]	% activity at 100 µM [12] [%]	% activity at 100 µM [13] [%]
MMI-0300 (peptide)	86	94	91	48	51	14	26	79	84	46	23	48	101
MMI-0400 (peptide)	78	92	43	37	38	14	14	73	87	38	19	44	90
MMI-0500 (peptide)	29	8	43	10	14	8	30	20	89	16	21	18	61
